Source: patent publication CN112111006A

Experiments:
[1] = target: 牛结节性皮肤病病毒(LSDV) P32蛋白,原核表达,去掉C端跨膜区 (Lumpy skin disease virus (LSDV))
[2] = target: 牛结节性皮肤病病毒(LSDV) P32蛋白,原核表达,去掉C端跨膜区 (Lumpy skin disease virus (LSDV)); test: ELISA of the ascites-purified monoclonal antibody on P32

Row | Binder | 检测限 [1] | ELISA效价 (titer (1:dilution)) [2]
1 | P32蛋白单克隆抗体,细胞株编号701 (antibody, V domains shown) VH: QSAPGLVQASQCLSITCTVSGFSLTTYAVHWVRQPPGQGLEWQGVIWSGGRTDYNAAFMCRLSISKDNSNSQDFFKMNSLQADDTAIYYCARNYYGGSLDYWGQGTTLTVSS VL: DIVLTQTPASLAVSLGQRATISSRASNSVSTSRYSYMHWNQQKPGQPPRLLIYLVSNLESGVPARFSGSGSGTDFTLNIHPVEEEDAATYYCQHIRELTFGGGTKLEIK | 10 ng/mL | > 128000
2 | P32蛋白单克隆抗体,细胞株编号901 (antibody, V domains shown) VH: QVQLNQSGPGLVQPSQSLSITCTLSGFSLTTYAVHWVRQSPGKGLEWLGVIWIGGRTDYNAAFISRLSISKDNSKSQVFFEMNSLQPNDTAIYYCARNYYGGSFDYWGQGTTLTVS VL: DIVLTQSPASLAVSLGQRATISYRDSKSVSTSGYSYMHWNQQKPGQPPRLLIYLVSNLESGVPARFSGSGSGTDFTLNIHPVEEEDAATYYCQHIRELTFGGGTKLEIK | 10 ng/mL | > 128000
